# Measurements as given in US20260042834A1 (HBM ALPHA THERAPEUTICS, published 2026).
# Values joined by “and” are separate entries in the source; they are usually repeats but may differ in a detail not shown here. Equal entries are not always repeated. Where two headings read alike, the source gives them in different places.
# What was measured:
# Assay in all cases: cell-based or functional assay
# [1] = molecular target: T1, corticotropin-releasing hormone (CRH) peptide (human and mouse (same sequence), not fully specified)
# T1 peptide: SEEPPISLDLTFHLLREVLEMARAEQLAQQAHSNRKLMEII
# [2] = molecular target: T1, corticotropin-releasing hormone (CRH) …
# [3] = molecular target: T1, corticotropin-releasing hormone (CRH) …
Binder,hCRHR1 Luciferase Reporter Assay IC50 [1],hCRHR1 Luciferase Reporter Assay IC50 [3],other results
"PR302341 (antibody, human IgG1, kappa, V domains shown) VH: EVQLQQSGPELVKPGASVKMSCKASGYTFTDYFMKWVKQSHGESLEWIGVINPNNGDIFYNQKFKGKATLTVDKSSSTAFMQLNSLTSEDSAVYSCARGTDRALFAYWGQGTLVAVSA VL: DVLMTQTPLSLPVSLGDQASISCRSGQSIVHSDGNTYLEWYLQRPGQSPRLLIYKVSNRFSGVPDRFSGSGSGTDFTLKISRVGAEDLGIYYCFQGSHIPWTFGGGTKLEVKR",–,–,mCrhr1 Luciferase Reporter Assay IC50 [1]: 611 pM; hCRHR1 Luciferase Reporter Assay IC50 [2]: 437 pM; mCrhr1 Luciferase Reporter Assay IC50 [2]: 1700 pM
"PR302341-22 (antibody, human IgG1, kappa, V domains shown) VH: QVQLVQSGAEVKKPGASVKVSCKASGYTFTDYFMKWVRQAPGQGLEWMGVINPNNGDIFYNQKFKGRVTMTRDTSISTAYMELSRLRSDDTAVYYCARGTDRALFAYWGQGTLVTVSS VL: DVVMTQSPLSLPVTLGQPASISCRSGQSIVHSDGNTYLEWYQQRPGQSPRLLIYKVSNRFSGVPDRFSGSGSGTDFTLKISRVEAEDLGVYYCFQGSHIPWTFGGGTKVEIKR",243 pM,–,–
"PR302341-23 (antibody, human IgG1, kappa, V domains shown) VH: QVQLVQSGAEVKKPGASVKVSCKASGYTFTDYFMKWVRQAPGQGLEWMGVINPNNGDIFYNQKFKGRVTMTVDKSISTAYMELSRLRSDDTAVYYCARGTDRALFAYWGQGTLVTVSS VL: DVVMTQSPLSLPVTLGQPASISCRSGQSIVHSDGNTYLEWYQQRPGQSPRLLIYKVSNRFSGVPDRFSGSGSGTDFTLKISRVEAEDLGVYYCFQGSHIPWTFGGGTKVEIKR",43 pM,–,mCrhr1 Luciferase Reporter Assay IC50 [1]: 111 pM; hCRHR1 Luciferase Reporter Assay IC50 [2]: 351 pM; mCrhr1 Luciferase Reporter Assay IC50 [2]: 1190 pM
"PR302341-20 (antibody, human IgG1, kappa, V domains shown) VH: QVQLVQSGAEVKKPGASVKVSCKASGYTFTDYFMKWVRQAPGQRLEWMGVINPNNGDIFYNQKFKGRVTITRDTSASTAYMELSSLRSEDTAVYYCARGTDRALFAYWGQGTLVTVSS VL: DVVMTQSPLSLPVTLGQPASISCRSGQSIVHSDGNTYLEWYQQRPGQSPRLLIYKVSNRFSGVPDRFSGSGSGTDFTLKISRVEAEDLGVYYCFQGSHIPWTFGGGTKVEIKR",162 pM,–,mCrhr1 Luciferase Reporter Assay IC50 [1]: 451 pM; hCRHR1 Luciferase Reporter Assay IC50 [2]: 188 pM; mCrhr1 Luciferase Reporter Assay IC50 [2]: 1620 pM
"PR302341-10 (antibody, human IgG1, kappa, V domains shown) VH: QVQLVQSGAEVKKPGASVKVSCKASGYTFTDYFMKWVRQAPGQGLEWMGVINPNNGDIFYNQKFKGRVTMTVDKSTSTAYMELSSLRSEDTAVYYCARGTDRALFAYWGQGTLVTVSS VL: DVVMTQTPLSSPVTLGQPASISCRSGQSIVHSDGNTYLEWYQQRPGQPPRLLIYKVSNRFSGVPDRFSGSGAGTDFTLKISRVEAEDLGVYYCFQGSHIPWTFGGGTKVEIKR",110 pM,–,mCrhr1 Luciferase Reporter Assay IC50 [1]: 290 pM; hCRHR1 Luciferase Reporter Assay IC50 [2]: 342 pM; mCrhr1 Luciferase Reporter Assay IC50 [2]: 1600 pM
"PR302341-26 (antibody, human IgG1, kappa, V domains shown) VH: QVQLVQSGAEVKKPGASVKVSCKASGYTFTDYFMKWVRQAPGQGLEWMGVINPNNGDIFYNQKFKGRVTMTVDKSISTAYMELSRLRSDDTAVYYCARGTDRALFAYWGQGTLVTVSS VL: DVVMTQTPLSSPVTLGQPASISCRSGQSIVHSDGNTYLEWYQQRPGQPPRLLIYKVSNRFSGVPDRFSGSGAGTDFTLKISRVEAEDLGVYYCFQGSHIPWTFGGGTKVEIKR",273 pM,–,–
"PR302341-24 (antibody, human IgG1, kappa, V domains shown) VH: QVQLVQSGAEVKKPGASVKVSCKASGYTFTDYFMKWVRQAPGQRLEWMGVINPNNGDIFYNQKFKGRVTITVDKSASTAYMELSSLRSEDTAVYYCARGTDRALFAYWGQGTLVTVSS VL: DVVMTQTPLSSPVTLGQPASISCRSGQSIVHSDGNTYLEWYQQRPGQPPRLLIYKVSNRFSGVPDRFSGSGAGTDFTLKISRVEAEDLGVYYCFQGSHIPWTFGGGTKVEIKR",192 pM,–,mCrhr1 Luciferase Reporter Assay IC50 [1]: 156 pM
"PR302341-27 (antibody, human IgG1, kappa, V domains shown) VH: QVQLVQSGAEVKKPGASVKVSCKASGYTFTDYFMKWVRQAPGQGLEWMGVINPNNGDIFYNQKFKGRVTMTVDKSISTAYMELSRLRSDDTAVYYCARGTDRALFAYWGQGTLVTVSS VL: DVVMTQTPLSLSVTPGQPASISCRSGQSIVHSDGNTYLEWYLQKPGQSPQLLIYKVSNRFSGVPDRFSGSGSGTDFTLKISRVEAEDLGVYYCFQGSHIPWTFGGGTKVEIKR",518 pM,–,–
"PR302341-25 (antibody, human IgG1, kappa, V domains shown) VH: QVQLVQSGAEVKKPGASVKVSCKASGYTFTDYFMKWVRQAPGQRLEWMGVINPNNGDIFYNQKFKGRVTITVDKSASTAYMELSSLRSEDTAVYYCARGTDRALFAYWGQGTLVTVSS VL: DVVMTQTPLSLSVTPGQPASISCRSGQSIVHSDGNTYLEWYLQKPGQSPQLLIYKVSNRFSGVPDRFSGSGSGTDFTLKISRVEAEDLGVYYCFQGSHIPWTFGGGTKVEIKR",711 pM,–,–
"PR302334-7 (antibody, human IgG1, kappa, V domains shown) VH: EVQLVESGGGLVQPGGSLRLSCAASGFTFSTYAMSWVRQAPGKGLEWVASIRSGGTTYYPDSVKGRFTISRDNSKNTLYLQMNSLRAEDTAVYYCTRGIDWGQGTTVTVSS VL: EIVMTQSPATLSVSPGERATLSCKASQSVNNDVAWYQQKPGQAPRLLIYYASNRYTGIPARFSGSGSGTEFTLTISSLQSEDFAVYYCQQDYSSWTFGGGTKVEIKR",–,996 pM,–
"PR302334-8 (antibody, human IgG1, kappa, V domains shown) VH: EVQLVESGGGLVQPGGSLRLSCAASGFTFSTYAMSWVRQAPGKGLEWVASIRSGGTTYYPDSVKGRFTISRDNSKNTLYLQMNSLRAEDTAVYYCTRGIDWGQGTTVTVSS VL: EIVMTQSPATLSVSPGERATLSCKASQSVNNDVAWYQQKPGQAPRLLIYYASNRYTGIPARFSGSGSGTEFTLTISSLQSEDLAVYFCQQDYSSWTFGGGTKVEIKR",–,816 pM,mCrhr1 Luciferase Reporter Assay IC50 [3]: 2610 pM
"PR302334-9 (antibody, human IgG1, kappa, V domains shown) VH: EVQLVESGGGLVQPGGSLRLSCAASGFTFSTYAMSWVRQAPGKGLEWVASIRSGGTTYYPDSVKGRFTISRDNSKNTLYLQMNSLRAEDTAVYYCTRGIDWGQGTTVTVSS VL: DIVMTQSPDSLAVSLGERATINCKASQSVNNDVAWYQQKPGQPPRLLIYYASNRYTGVPDRFSGSGSGTDFTLTISSLQAEDVAVYYCQQDYSSWTFGGGTKVEIKR",–,1420 pM,–
"PR302334 (antibody, human IgG1, kappa, V domains shown) VH: EVKLVESGGGLVKPGGSLKLSCAASGFTFSTYAMSWVRQTPEKRLEWVASIRSGGTTYYPDSVKGRFTISRDNARNILYLQMSSLRSEDTAIYYCTRGIDWGQGTLVTVSA VL: NIVMTQTPKFLLVSAGDRITITCKASQSVNNDVAWYQQKPGQSPKLLIYYASNRYTGVPDRFTGSGYGTDFTFTISTVQAEDLAVYFCQQDYSSWTFGGGTNLEIKR",–,260 pM and 644 pM,mCrhr1 Luciferase Reporter Assay IC50 [3]: 672 pM
"PR302334-2 (antibody, human IgG1, kappa, V domains shown) VH: EVKLVESGGGLVKPGGSLKLSCAASGFTFSTYAMSWVRQTPEKRLEWVASIRSGGTTYYPDSVKGRFTISRDNARNILYLQMSSLRSEDTAIYYCTRGIDWGQGTLVTVSA VL: EIVMTQSPATLSVSPGERATLSCKASQSVNNDVAWYQQKPGQAPRLLIYYASNRYTGIPARFSGSGSGTEFTLTISSLQSEDLAVYFCQQDYSSWTFGGGTKVEIKR",–,597 pM,–
"PR302334-3 (antibody, human IgG1, kappa, V domains shown) VH: EVKLVESGGGLVKPGGSLKLSCAASGFTFSTYAMSWVRQTPEKRLEWVASIRSGGTTYYPDSVKGRFTISRDNARNILYLQMSSLRSEDTAIYYCTRGIDWGQGTLVTVSA VL: DIVMTQSPDSLAVSLGERATINCKASQSVNNDVAWYQQKPGQPPRLLIYYASNRYTGVPDRFSGSGSGTDFTLTISSLQAEDVAVYYCQQDYSSWTFGGGTKVEIKR",–,542 pM,–
"PR302334-5 (antibody, human IgG1, kappa, V domains shown) VH: EVKLVESGGGLVKPGGSLKLSCAASGFTFSTYAMSWVRQTPEKRLEWVASIRSGGTTYYPDSVKGRFTISRDNARNILYLQMSSLRSEDTAIYYCTRGIDWGQGTLVTVSA VL: DIQMTQSSLSASVSLGDRVTITCKASQSVNNDVAWYQQKPGKAPRLLIYYASNRYTGVPSRFSGSGSGTDFTFTISSLQPEDIATYYCQQDYSSWTFGGGTKVEIKR",–,325 pM,–
"PR302334-4 (antibody, human IgG1, kappa, V domains shown) VH: EVKLVESGGGLVKPGGSLKLSCAASGFTFSTYAMSWVRQTPEKRLEWVASIRSGGTTYYPDSVKGRFTISRDNARNILYLQMSSLRSEDTAIYYCTRGIDWGQGTLVTVSA VL: DIVMTQSPDSLAVSLGERATINCKASQSVNNDVAWYQQKPGQPPRLLIYYASNRYTGVPDRFSGSGSGTDFTLTISSLQAEDLAVYFCQQDYSSWTFGGGTKVEIKR",–,553 pM,–
"PR302334-1 (antibody, human IgG1, kappa, V domains shown) VH: EVKLVESGGGLVKPGGSLKLSCAASGFTFSTYAMSWVRQTPEKRLEWVASIRSGGTTYYPDSVKGRFTISRDNARNILYLQMSSLRSEDTAIYYCTRGIDWGQGTLVTVSA VL: EIVMTQSPATLSVSPGERATLSCKASQSVNNDVAWYQQKPGQAPRLLIYYASNRYTGIPARFSGSGSGTEFTLTISSLQSEDFAVYYCQQDYSSWTFGGGTKVEIKR",–,624 pM,–
"PR302334-6 (antibody, human IgG1, kappa, V domains shown) VH: EVKLVESGGGLVKPGGSLKLSCAASGFTFSTYAMSWVRQTPEKRLEWVASIRSGGTTYYPDSVKGRFTISRDNARNILYLQMSSLRSEDTAIYYCTRGIDWGQGTLVTVSA VL: DIQMTQSSLSASVSLGDRVTITCKASQSVNNDVAWYQQKPGKAPRLLIYYASNRYTGVPSRFSGSGSGTDFTFTISSLQPEDLATYFCQQDYSSWTFGGGTKVEIKR",–,404 pM,–
